Target: hemagglutinin (HA) of influenza virus H3N? A/Env/MPJ193/09 (influenza A virus)
Assay: cell-based or functional assay

B1: MD2407 (bispecific antibody)
chain: EVQLVESGGGLVQPGGSLRLSCAVSISIFDIYAMDWYRQAPGKQRDLVATSFRDGSTNYADSVKGRFTISRDNAKNTLYLQMNSLKPEDTAVYLCHVSLYRDPLGVAGGMGVYWGKGALVTVSSGGGGSGGGGSEVQLVESGGGLVQAGGSLKLSCAASGRTYAMGWFRQAPGKEREFVAHINALGTRTYYSDSVKGRFTISRDNAKNTEYLEMNNLKPEDTAVYYCTAQGQWRAAPVAVAAEYEFWGQGTQVTVSSGGGGSGGGGSEVQLVESGGGLVQPGGSLRLSCAATGFTLENKAIGWFRQTPGSEREGVLCISKSGSWTYYTDSMRGRFTISRDNAENTVYLQMDSLKPEDTAVYYCATTTAGGGLCWDGTTFSRLASSWGQGTQVTVSSGGGGSGGGGSEVQLVESGGGLVQPGGSLKLSCAASGFTFSTSWMYWLRQAPGKGLEWVSVINTDGGTYYADSVKDRFTISRDNAKDTLYLQMSSLKSEDTAVYYCAKDWGGPEPTRGQGTQVTVSS
With B1 the average neutralization titer was 24.5 nM.
